The target in experiment [1] is T1, iPHF (human, UniProt P10636). The experiment can be described thus: BLI. On the technique in general: In BLI a coated tip is dipped into the sample, and binding shifts an interference pattern.
Experiment [2] concerns the target T1, iPHF. Briefly: SPR. (Surface plasmon resonance follows binding to a sensor surface in real time, without labels.)
A further experiment has as its target ePHF (human, UniProt P10636). The experiment can be described thus: ELISA. (In general: An ELISA detects its analyte on a solid surface through an enzyme-linked reagent.)
Experiment [3] addresses T2, Tau409-426 pS416 pS422 peptide (human).
T2 chain: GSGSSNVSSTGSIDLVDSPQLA
Briefly: ELISA.

The target in experiment [4] is T3, Tau409-426 6-phospho peptide (human, not fully specified).
T3 chain: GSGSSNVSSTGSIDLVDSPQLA
The experiment can be described thus: ELISA.

For a further experiment, the target named is T4, Tau409-426 pS422 peptide (human).
T4 chain: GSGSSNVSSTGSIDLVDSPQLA
Briefly: ELISA.

In a further experiment the target is T5, tau peptide 413-430 (human, phosphorylation not given).
T5 chain: STGSIDMVDSPQLATLAD

Experiment [5] concerns the target T1, iPHF. The experiment can be described thus: SPR, KD2.
For experiment [6], the target named is T1, iPHF. Briefly: SPR, KD1.

ePHF, sequence (P10636 2-758): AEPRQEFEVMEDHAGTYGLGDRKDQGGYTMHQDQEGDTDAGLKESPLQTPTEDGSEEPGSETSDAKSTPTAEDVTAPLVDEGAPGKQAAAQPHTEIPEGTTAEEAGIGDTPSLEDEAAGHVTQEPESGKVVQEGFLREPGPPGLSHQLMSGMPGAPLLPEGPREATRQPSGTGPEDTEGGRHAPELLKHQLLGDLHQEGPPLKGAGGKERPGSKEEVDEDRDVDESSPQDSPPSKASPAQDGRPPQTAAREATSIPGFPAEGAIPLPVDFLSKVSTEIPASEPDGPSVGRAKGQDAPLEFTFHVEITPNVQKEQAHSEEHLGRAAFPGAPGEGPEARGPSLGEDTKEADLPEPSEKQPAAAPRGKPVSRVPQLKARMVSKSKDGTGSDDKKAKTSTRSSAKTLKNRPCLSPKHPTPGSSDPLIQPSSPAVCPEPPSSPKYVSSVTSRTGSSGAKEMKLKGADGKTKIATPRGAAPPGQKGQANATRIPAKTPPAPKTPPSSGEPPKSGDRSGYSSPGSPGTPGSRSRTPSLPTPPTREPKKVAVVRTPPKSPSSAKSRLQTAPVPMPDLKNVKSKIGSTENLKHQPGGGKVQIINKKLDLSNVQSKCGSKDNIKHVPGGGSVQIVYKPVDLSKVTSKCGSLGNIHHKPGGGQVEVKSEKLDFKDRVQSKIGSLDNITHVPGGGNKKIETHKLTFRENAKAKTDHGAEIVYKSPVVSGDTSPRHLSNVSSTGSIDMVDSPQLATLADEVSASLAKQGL
T1 sequence (P10636 2-758): as above

B1: V0009 (antibody, V domains shown)
VH: EVQLVESGGALVQPGGSLSLSCAASGFTFTDYYMSWVRQPPGKALEWLALIRNKAKGFTTEYSASVKGRFTISRDNSQSILLFQMNDLRADDSATYYCVRDINYWGQGTTLTVSS
VL: not shown
modifications: immunopurified paired helical filament tau, hyperphosphorylated
In general, Kd refers to the free concentration of one partner at which half of the binding sites on the other are occupied at equilibrium, for simple one-to-one binding. A low value points to tighter binding. Regarding B1, the Kd with iPHF [1] worked out at 0.2 nM; with iPHF [2] it was 0.296 nM.

B2: V0009 (antibody, V domains shown)
VH: EVQLVESGGALVQPGGSLSLSCAASGFTFTDYYMSWVRQPPGKALEWLALIRNKAKGFTTEYSASVKGRFTISRDNSQSILLFQMNDLRADDSATYYCVRDINYWGQGTTLTVSS
VL: not shown
modifications: enriched paired helical filament tau, hyperphosphorylated
In general, EC50 refers to the concentration needed to bring the measured effect to its halfway point. In the experiment with ePHF, B2 yielded a 50% effective concentration (EC50) of 0.038 nM.

B3: V0004 (antibody, V domains shown)
VH: QVQLQQPGAELVKPGASVKLSCKASDYTFTNYWMHWVKQRPGRGLEWIGRIDPNSGGTRYNEKFKNKATLTVDKPSSTAYMHLSSLTSEDSAVYYCAGDFDVWGTGTTVTVSS
VL: DIQMTQSPASLSASVGETVTITCRASGNIHNYLAWYQQRQGKSPQLLVYNAKTLPDGVPSRFSGSGSGTQYSLKINSLQPEDFGSYCCQHFWSTPLTFGAGTKLELK
modifications: enriched paired helical filament tau, hyperphosphorylated
B3 showed a half-maximal effective concentration (EC50) in the experiment with ePHF of 0.083 nM.

B4: V0024 (antibody, V domains shown)
VH: QVQLQQPGTELVKPGASVKLSCKASGYTFTRFWMHWVKQRPGQGLEWIGNINPNNGGTDNNERFKSKATLTVDRSSSTAYMQLSSLTSEDSAVYYCARGTGTGAMDYWGQGTSVTVSS
VL: DVVMTQTPLSLPVSLGDQASISCRSSQSLVHSNGNTHLYWYLQKPGQSPKLLIYRVSSRFSGVPDRFSGSGSGTDFTLKISRVEAEDLGVYFCFQGTHVPRTFGGGTKLEIK
Turning to B4, the results for the EC50 (in [3]; in [4]; with Tau409-426 pS422 peptide) were 0.22 nM, 0.222 nM and 0.233 nM, respectively. Also, the Kd with tau peptide 413-430 stood at 0.225 nM.

B5: V0022 (antibody, V domains shown)
VH: QVQLQQPGTELVKPGSSVNLSCKASGFTFTRYWMHWVKERPGHGLEWIGNINPNNGGTDFNEKFKNKATLTVHKSSTTVFIQLSSLTSEDSAVYYCARGTGTGAMDYWGQGTSVTVSS
VL: DVVMTQTPLSLPVSLGDQASISCRSSQSLVHNNGITYLYWYLQKPGQSPKLLIYRVSNRFSGVPDRFGGSGSGTDFTLKISRVEAEDLGVYFCFQGTHVPRTFGGGTKLEIK
modifications: immunopurified paired helical filament tau, hyperphosphorylated
As to B5, the values for the Kd with iPHF [1] and with iPHF [2] were 0.3 nM and 0.0439 nM, respectively.

B6: V0023 (antibody, V domains shown)
VH: QVQLQQPGTELVKPGASVKLSCKASGYTFTIFWMHWVKQRPGHGLEWIGKINPNNGGGDYNEKFKSKATLTVDKSSTTAYLQLSSLTSEDSAVYYCARGTGTGAMDYWGQGTSVTVSS
VL: DVVMTQTPLSLPVSLGDHASISCRSSQSLVHSNGITHLYWYLQRPGQTPKLLIYRVSNRFSGVPDRFSGSGSGTDFTLKISSVEAEDLGVYFCFQGTHVPRTFGGGTKLEIE
modifications: immunopurified paired helical filament tau, hyperphosphorylated
Turning to B6, the Kd with iPHF [1] was found to be 4 nM; with iPHF [2], 0.0578 nM.

B7: V0024 (antibody, V domains shown)
VH: QVQLQQPGTELVKPGASVKLSCKASGYTFTRFWMHWVKQRPGQGLEWIGNINPNNGGTDNNERFKSKATLTVDRSSSTAYMQLSSLTSEDSAVYYCARGTGTGAMDYWGQGTSVTVSS
VL: DVVMTQTPLSLPVSLGDQASISCRSSQSLVHSNGNTHLYWYLQKPGQSPKLLIYRVSSRFSGVPDRFSGSGSGTDFTLKISRVEAEDLGVYFCFQGTHVPRTFGGGTKLEIK
modifications: immunopurified paired helical filament tau, hyperphosphorylated
Regarding B7, the Kd was 2.8 nM with iPHF [1] and 0.124 nM with iPHF [2].

B8: V0022 (antibody, V domains shown)
VH: QVQLQQPGTELVKPGSSVNLSCKASGFTFTRYWMHWVKERPGHGLEWIGNINPNNGGTDFNEKFKNKATLTVHKSSTTVFIQLSSLTSEDSAVYYCARGTGTGAMDYWGQGTSVTVSS
VL: DVVMTQTPLSLPVSLGDQASISCRSSQSLVHNNGITYLYWYLQKPGQSPKLLIYRVSNRFSGVPDRFGGSGSGTDFTLKISRVEAEDLGVYFCFQGTHVPRTFGGGTKLEIK
modifications: enriched paired helical filament tau, hyperphosphorylated
With B8, a half-maximal response with ePHF (EC50) required 0.07 nM.

B9: V0024 (antibody, V domains shown)
VH: QVQLQQPGTELVKPGASVKLSCKASGYTFTRFWMHWVKQRPGQGLEWIGNINPNNGGTDNNERFKSKATLTVDRSSSTAYMQLSSLTSEDSAVYYCARGTGTGAMDYWGQGTSVTVSS
VL: DVVMTQTPLSLPVSLGDQASISCRSSQSLVHSNGNTHLYWYLQKPGQSPKLLIYRVSSRFSGVPDRFSGSGSGTDFTLKISRVEAEDLGVYFCFQGTHVPRTFGGGTKLEIK
modifications: enriched paired helical filament tau, hyperphosphorylated
In the case of B9, the response with ePHF was half-maximal at 0.125 nM (EC50).

B10: V0022 (antibody, V domains shown)
VH: QVQLQQPGTELVKPGSSVNLSCKASGFTFTRYWMHWVKERPGHGLEWIGNINPNNGGTDFNEKFKNKATLTVHKSSTTVFIQLSSLTSEDSAVYYCARGTGTGAMDYWGQGTSVTVSS
VL: DVVMTQTPLSLPVSLGDQASISCRSSQSLVHNNGITYLYWYLQKPGQSPKLLIYRVSNRFSGVPDRFGGSGSGTDFTLKISRVEAEDLGVYFCFQGTHVPRTFGGGTKLEIK
As to B10, the figures for the EC50 (in [3]; in [4]; with Tau409-426 pS422 peptide) were 0.283 nM, 0.302 nM and 0.288 nM, respectively. The Kd with tau peptide 413-430 came to 0.306 nM.

B11: V0023 (antibody, V domains shown)
VH: QVQLQQPGTELVKPGASVKLSCKASGYTFTIFWMHWVKQRPGHGLEWIGKINPNNGGGDYNEKFKSKATLTVDKSSTTAYLQLSSLTSEDSAVYYCARGTGTGAMDYWGQGTSVTVSS
VL: DVVMTQTPLSLPVSLGDHASISCRSSQSLVHSNGITHLYWYLQRPGQTPKLLIYRVSNRFSGVPDRFSGSGSGTDFTLKISSVEAEDLGVYFCFQGTHVPRTFGGGTKLEIE
B11: the EC50 was found to be 0.252 nM in [3], 0.217 nM in [4] and 0.234 nM with Tau409-426 pS422 peptide. For the same molecule, the Kd with tau peptide 413-430 was 0.207 nM.

B12: V0052 (antibody, V domains shown)
VH: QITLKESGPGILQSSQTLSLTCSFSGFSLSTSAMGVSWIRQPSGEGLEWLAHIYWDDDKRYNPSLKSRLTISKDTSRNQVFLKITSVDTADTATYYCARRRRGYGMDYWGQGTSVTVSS
VL: SIVMTQTPKFLLVSAGDRVTITCKASQSVSNDVAWYQQKPGQSPKLLIYYASNRCTGVPDRFTGSGYGTDFTFTISTVQAEDLAVYFCQQDYRSPLTFGAGTKLELK
modifications: immunopurified paired helical filament tau, hyperphosphorylated
For B12, the Kd amounted to 0.6 nM with iPHF [1], 2.64 nM with iPHF [5] and 4.46 nM in the experiment with iPHF [6].

(Values after patent publication US20260356924 (published 2026).)
